The target of this assay is acetylcholine receptor. Description: SPR, receptor immobilized, peptide 10 uM.

As to REDFRR [6mer-2-837], the Binding affinity (RU) amounted to 32 RU.

Molecule RFSFKR [6mer-2-846] displayed a Binding affinity (RU) of 30 RU.

RMKFKR [6mer-2-830] yielded a Binding affinity (RU) of 21 RU.

For RHCNRK [6mer-2-865], the Binding affinity (RU) came out at 16 RU.

In turn, REMIKR [6mer-2-855] registered a Binding affinity (RU) of 19 RU.

With KYHNRR [6mer-2-832], the Binding affinity (RU) came out at 32 RU.

As for KDTEKK [6mer-2-881], the Binding affinity (RU) stood at 33 RU.

In turn, KEDNKR [6mer-2-876] yielded a Binding affinity (RU) of 17 RU.

REDWRK [6mer-2-823] had a Binding affinity (RU) of 25 RU.

Take RIDHRK [6mer-2-875]: the Binding affinity (RU) came out at 13 RU.

The molecule RNCERR [6mer-2-852] displayed a Binding affinity (RU) of 28 RU.

Turning to RMKKKR [6mer-2-828], the Binding affinity (RU) was found to be 32 RU.

For the molecule KMTMKK [6mer-2-884], the Binding affinity (RU) came to 11 RU.

With RMTWRK [6mer-2-831], the Binding affinity (RU) came out at 29 RU.

Molecule KEEHRR [6mer-2-858] showed a Binding affinity (RU) of 30 RU.

Take KTHFRK [6mer-2-872]: the Binding affinity (RU) worked out at 28 RU.

On to RKHWRR [6mer-2-863], for which the Binding affinity (RU) was found to be 17 RU.

In the case of RTPNRR [6mer-2-868], the Binding affinity (RU) came to 30 RU.

RTNEKR [6mer-2-883] returned a Binding affinity (RU) of 22 RU.

With KYWEKK [6mer-2-867], the Binding affinity (RU) is 32 RU.

With RMDFRK [6mer-2-859], the Binding affinity (RU) was found to be 21 RU.

RMTERK [6mer-2-848] registered a Binding affinity (RU) of 29 RU.

Molecule KAPDRK [6mer-2-843] gave a Binding affinity (RU) of 33 RU.

As to RCNWKR [6mer-2-854], the Binding affinity (RU) came out at 23 RU.

Consider RNTPRK [6mer-2-826], for which the Binding affinity (RU) was 11 RU.

Take KEPMRR [6mer-2-856]: the Binding affinity (RU) was 14 RU.

The molecule RHCGKR [6mer-2-835] registered a Binding affinity (RU) of 20 RU.

In the case of RTHHKK [6mer-2-880], the Binding affinity (RU) was 12 RU.

On to REMPKR [6mer-2-871], for which the Binding affinity (RU) was found to be 31 RU.

KMTEKK [6mer-2-870] registered a Binding affinity (RU) of 21 RU.

The molecule KPNFRR [6mer-2-860] came in with a Binding affinity (RU) of 31 RU.

KCNDKK [6mer-2-817] returned a Binding affinity (RU) of 22 RU.

RCTAKK [6mer-2-822] gave a Binding affinity (RU) of 13 RU.

For KFSVRR [6mer-2-819], the Binding affinity (RU) is 23 RU.

Molecule KKKIRR [6mer-2-829] displayed a Binding affinity (RU) of 22 RU.

In turn, RCPKKR [6mer-2-887] returned a Binding affinity (RU) of 18 RU.

Consider KETVRR [6mer-2-878], for which the Binding affinity (RU) was 24 RU.

Molecule KNTMKR [6mer-2-836] yielded a Binding affinity (RU) of 26 RU.

KTSMKR [6mer-2-850] showed a Binding affinity (RU) of 16 RU.

With KPNHRK [6mer-2-841], the Binding affinity (RU) amounted to 33 RU.

Molecule KDWDRK [6mer-2-840] displayed a Binding affinity (RU) of 15 RU.

On to RHDHKR [6mer-2-869], for which the Binding affinity (RU) amounted to 18 RU.

With RDPKKK [6mer-2-844], the Binding affinity (RU) was 22 RU.

Regarding RPNNKK [6mer-2-820], the Binding affinity (RU) is 24 RU.

KMKEKR [6mer-2-845] registered a Binding affinity (RU) of 14 RU.

Consider RITNKR [6mer-2-824], for which the Binding affinity (RU) is 26 RU.

On to RTMDRR [6mer-2-879], for which the Binding affinity (RU) is 19 RU.

Consider RKTWRR [6mer-2-833], for which the Binding affinity (RU) amounted to 14 RU.

For the molecule KNHNRR [6mer-2-839], the Binding affinity (RU) worked out at 32 RU.

Take KHTEKK [6mer-2-857]: the Binding affinity (RU) came to 20 RU.

KPKMRR [6mer-2-842] showed a Binding affinity (RU) of 22 RU.

As to RTPAKR [6mer-2-882], the Binding affinity (RU) came to 15 RU.

KPPERR [6mer-2-877] registered a Binding affinity (RU) of 17 RU.

RHTFKK [6mer-2-862]: the Binding affinity (RU) was 29 RU.

Turning to KCMVRR [6mer-2-885], the Binding affinity (RU) amounted to 17 RU.

RFWWKR [6mer-2-834] gave a Binding affinity (RU) of 28 RU.

Molecule KYAEKK [6mer-2-827] showed a Binding affinity (RU) of 13 RU.

As to RNTAKK [6mer-2-849], the Binding affinity (RU) is 13 RU.

Take KHTGRR [6mer-2-853]: the Binding affinity (RU) came out at 29 RU.

In turn, KDTDRK [6mer-2-861] registered a Binding affinity (RU) of 21 RU.

In turn, RCTVRK [6mer-2-838] came in with a Binding affinity (RU) of 13 RU.

In turn, KTWVRR [6mer-2-886] gave a Binding affinity (RU) of 13 RU.

The molecule KTPERK [6mer-2-818] displayed a Binding affinity (RU) of 13 RU.

RPTMKR [6mer-2-821] gave a Binding affinity (RU) of 33 RU.

In turn, RYCHKR [6mer-2-847] came in with a Binding affinity (RU) of 22 RU.

In the case of RKCAKK [6mer-2-864], the Binding affinity (RU) was 12 RU.

The molecule KNWGRR [6mer-2-873] gave a Binding affinity (RU) of 11 RU.

On to KIHARK [6mer-2-825], for which the Binding affinity (RU) is 11 RU.

In turn, KFWWRR [6mer-2-851] registered a Binding affinity (RU) of 19 RU.

RDNPKK [6mer-2-866] yielded a Binding affinity (RU) of 24 RU.

In turn, KIHFRK [6mer-2-874] had a Binding affinity (RU) of 33 RU.

The values are drawn from patent publication US20250011363A1, “OPTIMIZED SHORTENED PEPTIDE THAT BINDS TO ACETYLCHOLINE RECEPTOR, AND USE THEREOF” (SKINMED CO., LTD., priority 2021, published 2025).
